Reference: the supplement of paper PMC9112550, “Optimization of the antimicrobial peptide Bac7 by deep mutational scanning” (BMC Biology, 2022)

System: Escherichia coli TOP10
Test: shrunken log2 fold change of peptide-encoding DNA abundance (4.5 h post-induction vs induction); higher = less antimicrobial activity (less host growth inhibition)
Settings: time post-induction: 4.5 h; library: site-saturation at positions 5, 18, 19, 20
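Further: peptides expressed intracellularly from a pBAD plasmid library in pooled LB shake-flask culture, induced with 0.3% L-arabinose, DNA abundance read by NGS, three biological replicates, DESeq2 with apeglm shrinkage.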

Sequence | shrunken log2 fold change
RRIRARPPRLPRPRPRPPRVPRP | 0.875
RRIRARPPRLPRPRPRPPSDPRP | 0.705
RRIRARPPRLPRPRPRPPTMPRP | 0.407
RRIRARPPRLPRPRPRPPTPPRP | 1.33
RRIRARPPRLPRPRPRPPVKPRP | 0.404
RRIRARPPRLPRPRPRPPVNPRP | 0.36
RRIRARPPRLPRPRPRPPWEPRP | 0.558
RRIRARPPRLPRPRPRPPWRPRP | 0.816
RRIRARPPRLPRPRPRPQCGPRP | 0.436
RRIRARPPRLPRPRPRPQCHPRP | 0.441
RRIRARPPRLPRPRPRPQCSPRP | 0.111
RRIRARPPRLPRPRPRPQCVPRP | 0.0695
RRIRARPPRLPRPRPRPQEDPRP | 0.124
RRIRARPPRLPRPRPRPQEEPRP | 0.0293
RRIRARPPRLPRPRPRPQEMPRP | -0.0254
RRIRARPPRLPRPRPRPQEYPRP | 0.0643
RRIRARPPRLPRPRPRPQFDPRP | 0.545
RRIRARPPRLPRPRPRPQFFPRP | 0.0526
RRIRARPPRLPRPRPRPQGCPRP | 0.03
RRIRARPPRLPRPRPRPQGFPRP | 0.807
RRIRARPPRLPRPRPRPQGGPRP | 0.499
RRIRARPPRLPRPRPRPQGWPRP | 0.472
RRIRARPPRLPRPRPRPQILPRP | -0.0605
RRIRARPPRLPRPRPRPQKAPRP | 0.0481
RRIRARPPRLPRPRPRPQKIPRP | -0.108

Sequence | shrunken log2 fold change
RRIRARPPRLPRPRPRPQKKPRP | -0.0278
RRIRARPPRLPRPRPRPQLDPRP | 0.654
RRIRARPPRLPRPRPRPQLPPRP | 0.327
RRIRARPPRLPRPRPRPQMIPRP | 0.181
RRIRARPPRLPRPRPRPQMNPRP | -0.113
RRIRARPPRLPRPRPRPQMTPRP | 0.0889
RRIRARPPRLPRPRPRPQMWPRP | 0.102
RRIRARPPRLPRPRPRPQNWPRP | 0.315
RRIRARPPRLPRPRPRPQPNPRP | 0.396
RRIRARPPRLPRPRPRPQPQPRP | 0.436
RRIRARPPRLPRPRPRPQPYPRP | -0.3
RRIRARPPRLPRPRPRPQQEPRP | -0.0196
RRIRARPPRLPRPRPRPQQFPRP | 0.097
RRIRARPPRLPRPRPRPQQHPRP | 0.284
RRIRARPPRLPRPRPRPQSHPRP | -0.162
RRIRARPPRLPRPRPRPQSMPRP | -0.0226
RRIRARPPRLPRPRPRPQTLPRP | 0.0847
RRIRARPPRLPRPRPRPQTNPRP | 0.36
RRIRARPPRLPRPRPRPQWAPRP | 0.156
RRIRARPPRLPRPRPRPQWDPRP | 0.00442
RRIRARPPRLPRPRPRPQYFPRP | -0.153
RRIRARPPRLPRPRPRPRAEPRP | 0.983
RRIRARPPRLPRPRPRPRAPPRP | 1.01
RRIRARPPRLPRPRPRPRCFPRP | 0.222
RRIRARPPRLPRPRPRPRCWPRP | 0.601

Sequence | shrunken log2 fold change
RRIRARPPRLPRPRPRPRDHPRP | 0.158
RRIRARPPRLPRPRPRPRECPRP | 0.804
RRIRARPPRLPRPRPRPREIPRP | 0.865
RRIRARPPRLPRPRPRPRFKPRP | 0.122
RRIRARPPRLPRPRPRPRGLPRP | 0.628
RRIRARPPRLPRPRPRPRIEPRP | 0.309
RRIRARPPRLPRPRPRPRIHPRP | -0.145
RRIRARPPRLPRPRPRPRIQPRP | 0.505
RRIRARPPRLPRPRPRPRNVPRP | 0.0957
RRIRARPPRLPRPRPRPRQHPRP | 0.278
RRIRARPPRLPRPRPRPRRMPRP | 0.551
RRIRARPPRLPRPRPRPRVCPRP | 0.0904
RRIRARPPRLPRPRPRPRVDPRP | 0.419
RRIRARPPRLPRPRPRPRVPPRP | 0.428
RRIRARPPRLPRPRPRPRVQPRP | 0.359
RRIRARPPRLPRPRPRPRWDPRP | 0.768
RRIRARPPRLPRPRPRPRWYPRP | -0.0331
RRIRARPPRLPRPRPRPRYCPRP | -0.15
RRIRARPPRLPRPRPRPRYVPRP | -0.25
RRIRARPPRLPRPRPRPSAEPRP | 0.976
RRIRARPPRLPRPRPRPSDFPRP | 0.0983
RRIRARPPRLPRPRPRPSFWPRP | 0.354
RRIRARPPRLPRPRPRPSHLPRP | -0.41
RRIRARPPRLPRPRPRPSIGPRP | 0.111
RRIRARPPRLPRPRPRPSIHPRP | -0.233

Sequence | shrunken log2 fold change
RRIRARPPRLPRPRPRPSINPRP | -0.308
RRIRARPPRLPRPRPRPSKQPRP | 0.0216
RRIRARPPRLPRPRPRPSLQPRP | 0.193
RRIRARPPRLPRPRPRPSMHPRP | 0.163
RRIRARPPRLPRPRPRPSMIPRP | -0.128
RRIRARPPRLPRPRPRPSMLPRP | 0.0741
RRIRARPPRLPRPRPRPSNHPRP | -0.089
RRIRARPPRLPRPRPRPSNLPRP | -0.39
RRIRARPPRLPRPRPRPSQMPRP | 0.0732
RRIRARPPRLPRPRPRPSRRPRP | 0.297
RRIRARPPRLPRPRPRPSSSPRP | 0.185
RRIRARPPRLPRPRPRPSWWPRP | 0.695
RRIRARPPRLPRPRPRPSYEPRP | -0.069
RRIRARPPRLPRPRPRPSYHPRP | -0.255
RRIRARPPRLPRPRPRPSYKPRP | -0.305
RRIRARPPRLPRPRPRPTAVPRP | 0.873
RRIRARPPRLPRPRPRPTDCPRP | 0.0381
RRIRARPPRLPRPRPRPTDQPRP | 0.918
RRIRARPPRLPRPRPRPTEKPRP | 0.413
RRIRARPPRLPRPRPRPTHVPRP | 0.813
RRIRARPPRLPRPRPRPTKNPRP | 0.429
RRIRARPPRLPRPRPRPTKYPRP | -0.114
RRIRARPPRLPRPRPRPTLKPRP | 0.605
RRIRARPPRLPRPRPRPTMGPRP | 0.469
RRIRARPPRLPRPRPRPTNDPRP | 0.297

Sequence | shrunken log2 fold change
RRIRARPPRLPRPRPRPTNYPRP | -0.137
RRIRARPPRLPRPRPRPTPGPRP | 0.826
RRIRARPPRLPRPRPRPTQDPRP | 0.974
RRIRARPPRLPRPRPRPTQQPRP | -0.0711
RRIRARPPRLPRPRPRPTRLPRP | 0.545
RRIRARPPRLPRPRPRPTRRPRP | 1.1
RRIRARPPRLPRPRPRPTRSPRP | 0.258
RRIRARPPRLPRPRPRPTSMPRP | 0.127
RRIRARPPRLPRPRPRPTTLPRP | 0.067
RRIRARPPRLPRPRPRPTVDPRP | 0.732
RRIRARPPRLPRPRPRPTVHPRP | 2.45
RRIRARPPRLPRPRPRPTVWPRP | 0.552
RRIRARPPRLPRPRPRPTWEPRP | 1.02
RRIRARPPRLPRPRPRPTWWPRP | 0.568
RRIRARPPRLPRPRPRPTYFPRP | 0.161
RRIRARPPRLPRPRPRPVADPRP | 1.44
RRIRARPPRLPRPRPRPVAEPRP | 0.871
RRIRARPPRLPRPRPRPVAYPRP | 0.0127
RRIRARPPRLPRPRPRPVDGPRP | 0.381
RRIRARPPRLPRPRPRPVELPRP | 0.0828
RRIRARPPRLPRPRPRPVFTPRP | -0.0343
RRIRARPPRLPRPRPRPVHSPRP | 0.0799
RRIRARPPRLPRPRPRPVIIPRP | -0.104
RRIRARPPRLPRPRPRPVIKPRP | -0.136
RRIRARPPRLPRPRPRPVLCPRP | 0.43

Sequence | shrunken log2 fold change
RRIRARPPRLPRPRPRPVLVPRP | 0.0133
RRIRARPPRLPRPRPRPVMRPRP | 0.292
RRIRARPPRLPRPRPRPVMTPRP | -0.00766
RRIRARPPRLPRPRPRPVNHPRP | -0.298
RRIRARPPRLPRPRPRPVNKPRP | -0.117
RRIRARPPRLPRPRPRPVNRPRP | 0.277
RRIRARPPRLPRPRPRPVPKPRP | 0.791
RRIRARPPRLPRPRPRPVPNPRP | -0.0263
RRIRARPPRLPRPRPRPVQAPRP | 0.312
RRIRARPPRLPRPRPRPVQDPRP | -0.0965
RRIRARPPRLPRPRPRPVQYPRP | 0.0979
RRIRARPPRLPRPRPRPVRLPRP | 0.371
RRIRARPPRLPRPRPRPVRMPRP | 0.618
RRIRARPPRLPRPRPRPVRVPRP | 0.781
RRIRARPPRLPRPRPRPVSYPRP | -0.133
RRIRARPPRLPRPRPRPVTHPRP | 0.105
RRIRARPPRLPRPRPRPVTQPRP | 0.0996
RRIRARPPRLPRPRPRPVVGPRP | 0.5
RRIRARPPRLPRPRPRPWAHPRP | 0.0535
RRIRARPPRLPRPRPRPWCDPRP | 0.00114
RRIRARPPRLPRPRPRPWCHPRP | -0.0135
RRIRARPPRLPRPRPRPWCWPRP | 0.583
RRIRARPPRLPRPRPRPWEKPRP | -0.164
RRIRARPPRLPRPRPRPWFVPRP | -0.0746
RRIRARPPRLPRPRPRPWHFPRP | 0.24
